# In patent US20190233512A1 (SUTRO BIOPHARMA, published 2019):
# Columns and labels:
# [1] = molecular target: T1, Human folate receptor alpha (hFOLR1) (human, UniProt P15328 25-234); assay: FACS, CHO-hFOLR1 cells
# T1 construct: Stably expressed on CHO cells (CHO-hFOLR1) for flow cytometry; endogenous on FOLR1-positive KB and Igrov1 cells in the killing assay; also called human FOLR1; FolRα
# Experimental: CHO cells were transfected to stably express human (CHO-hFOLR1), cynomolgus (CHO-cFOLR1), or mouse (CHO-mFOLR1) target molecule FOLR1 on the cell surface. Parental CHO cells were used as a negative control to determine background binding levels. Parental CHO and stably transfected CHO-hFOLR1, CHO-cFOLR1, and CHO-mFOLR1 cells were cultured in Ham's F-12: high glucose DMEM (50:50) (Corning, Cellgro-Mediatech) supplemented with 10% heat-inactivated fetal bovine serum (Corning, Cellgro-Mediatech), 1% Penicillin/Streptomycin (Corning, Cellgro-Mediatech) and 2 mmol/L-glutamax (Life Technology).
# A mixture of fluoresecent-labeled parental CHO cells and unlabeled CHO-hFOLRlcells were prepared as follows. Parental CHO cells were washed twice in PBS and incubated in PBS containing with 1 nM CellTrace™ Oregon Green488® (Life Technologies) at 37° C. for 30 minutes. Labeled parental CHO cells were then washed 2× with Ham's F-12 media and 2× with FACS buffer (PBS with 1% bovine serum albumin). Unlabeled CHO-hFOLR1 cells were similarly washed and prepared. Labeled parental CHO and unlabeled CHO-hFOLR1 cells were combined at 1:1 ratio and seeded at 50 μL per well (200,000 cells per well) in 96 well polypropylene plates. Cells were mixed with 50 μL of test antibodies (i.e., anti-FOLR1 variants) serially diluted in FACS buffer and incubated on ice for 60 mins. Cells were washed with FACS buffer and incubated on ice for 60 mins with 100 μL FACS buffer containing 2.5 μg/mL R-Phycoerythrin-conjugated goat anti-Human IgG (Jackson ImmunoResearch Laboratories, West Grove, Pa.). Cells were washed twice with FACS buffer, fixed in 2% paraformaldehyde in PBS (Santa Cruz Biotechnology; Dallas, Tex.) for 10 mins on ice in the dark, and analyzed using the BD LSR II Flow Cytometer (BD Biosciences; San Jose, Calif.). Data were analyzed using FlowJo® software (FlowJo, LLC; Ashland, Oreg.) to determine mean fluorescence intensities. Binding constants were calculated using the statistical software, GraphPad Prism (GraphPad Software; La Jolla, Calif.) using the nonlinear regression equation, one site-specific binding with Hill slope. Secondary antibody alone was used as a control, in addition to measuring non-specific antibody binding to CHO parental cells.
# [2] = molecular target: T2, Murine folate receptor alpha (mouse, UniProt P35846 25-232); assay: FACS, CHO-mFOLR1 cells
# T2 construct: Stably expressed on CHO cells (CHO-mFOLR1); also called mouse FOLR1; CHO-mFOLR1
# T2 sequence (P35846 25-232 limits assumed): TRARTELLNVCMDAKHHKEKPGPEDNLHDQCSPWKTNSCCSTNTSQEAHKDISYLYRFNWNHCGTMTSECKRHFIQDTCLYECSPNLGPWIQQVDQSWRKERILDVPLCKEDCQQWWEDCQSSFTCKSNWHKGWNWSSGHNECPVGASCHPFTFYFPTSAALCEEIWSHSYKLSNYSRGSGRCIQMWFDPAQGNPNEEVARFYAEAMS
# [3] = molecular target: T3, Cynomolgus folate receptor alpha (cynomolgus monkey, UniProt P15328 25-234 (human entry)); assay: FACS, CHO-cFOLR1 cells
# T3 construct: Stably expressed on CHO cells (CHO-cFOLR1); also called cynomolgus FOLR1; CHO-cFOLR1
# T3 sequence (P15328 other isoform, or with tags, fused parts or gaps limits assumed): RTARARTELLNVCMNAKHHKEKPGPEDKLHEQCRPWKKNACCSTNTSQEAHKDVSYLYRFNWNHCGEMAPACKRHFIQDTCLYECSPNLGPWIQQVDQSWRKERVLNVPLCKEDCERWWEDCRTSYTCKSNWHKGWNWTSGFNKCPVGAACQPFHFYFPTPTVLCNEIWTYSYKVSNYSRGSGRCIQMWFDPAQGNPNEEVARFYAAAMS
# T1 sequence (P15328 25-234 limits assumed): as the sequence (P15328 other isoform, or with tags, fused parts or gaps limits assumed) above, with T2I, R4W, K37R, R117Q, P146A, Y171H counted along it
Binder,Bmax [1] [MFI],Bmax [2] [MFI],Bmax [3] [MFI]
"SRP1848-F04 (antibody, V domains shown, VH/VL only; Fc-bearing IgG format with trastuzumab LC, HIS/FLAG-tagged, cell-free expressed; constant regions not tied; also called Antibody 39) VH: EVQLVESGGGLVQPGGSLRLSCAASGFNISNYSIHWVRQAPGKGLEWVGEIYPIDGITDYADSVKGRFTISADTSKNTAYLQMNSLRAEDTAVYYCARGSWFWRSGYGYYLDYWGQGTLVTVSS VL: not shown",26900,2740,26400
"SRP1848-A04 (antibody, V domains shown, VH/VL only; Fc-bearing IgG format with trastuzumab LC, HIS/FLAG-tagged, cell-free expressed; constant regions not tied; also called Antibody 3) VH: EVQLVESGGGLVQPGGSLRLSCAASGFNIDQSSIHWVRQAPGKGLEWVGVIYPVDGTTDYADSVKGRFTISADTSKNTAYLQMNSLRAEDTAVYYCARGAWSWRSGYGYYIDYWGQGTLVTVSS VL: not shown",26800,3890,23100
"SRP1848-A06 (antibody, V domains shown, VH/VL only; Fc-bearing IgG format with trastuzumab LC, HIS/FLAG-tagged, cell-free expressed; constant regions not tied; also called Antibody 4) VH: EVQLVESGGGLVQPGGSLRLSCAASGFNIGNSYIHWVRQAPGKGLEWVGGITPIDGNTDYADSVKGRFTISADTSKNTAYLQMNSLRAEDTAVYYCARGAWSWRSGYGYYIDYWGQGTLVTVSS VL: not shown",24500,2770,20200
"SRP1848-A07 (antibody, V domains shown, VH/VL only; Fc-bearing IgG format with trastuzumab LC, HIS/FLAG-tagged, cell-free expressed; constant regions not tied; also called Antibody 5) VH: EVQLVESGGGLVQPGGSLRLSCAASGFNIGYHSIHWVRQAPGKGLEWVGEIFPVDGTTDYADSVKGRFTISADTSKNTAYLHMNSLRAEDTAVYYCARGFWAWRSGYGYYLDYWGQGTLVTVSS VL: not shown",29200,9650,23600
"SRP1848-A08 (antibody, V domains shown, VH/VL only; Fc-bearing IgG format with trastuzumab LC, HIS/FLAG-tagged, cell-free expressed; constant regions not tied; also called Antibody 6) VH: EVQLVESGGGLVQPGGSLRLSCAASGSNIRKHSIHWVRQAPGKGLEWVGSIYPNDGTTDYADSVKGRFTISADTSKNTAYLQMNSLRAEDTAVYYCARGSWFWRAGYGYYLDYWGQGTLVTVSS VL: not shown",28600,3200,26200
"SRP1848-A09 (antibody, V domains shown, VH/VL only; Fc-bearing IgG format with trastuzumab LC, HIS/FLAG-tagged, cell-free expressed; constant regions not tied; also called Antibody 7) VH: EVQLVESGGGLVQPGGSLRLSCAASGFNIRKQSIHWVRQAPGKGLEWVGSIFPNDGTTDYADSVKGRFTISADTSKNTAYLQVNSLRAEDTAVYYCARGSWFWRSGYGYFLEYWGQGTLVTVSS VL: not shown",28900,7990,20200
"SRP1848-A10 (antibody, V domains shown, VH/VL only; Fc-bearing IgG format with trastuzumab LC, HIS/FLAG-tagged, cell-free expressed; constant regions not tied; also called Antibody 8) VH: EVQLVESGGGLVQPGGSLRLSCAASGFNIRKYSIHWARQAPGKGLEWVGDIFPIDDITDYADSVKGRFTISADTSKNTAYLQMNSLRAEDTAVYYCARGSWSWPSGHSYYLDYWGQGTLVTVSS VL: not shown",27100,10200,14800
"SRP1848-B01 (antibody, V domains shown, VH/VL only; Fc-bearing IgG format with trastuzumab LC, HIS/FLAG-tagged, cell-free expressed; constant regions not tied; also called Antibody 9) VH: EVQLVESGGGLVQPGGSLRLSCAASGFNIRNYSIHWVRQAPGKGLEWVGEIYPVDGITDYADSVKGRFTISADTSKNTAYLQMNSLRAEDTAVYYCARGFWSWPSGYSYFLDYWGQGTLVTVSS VL: not shown",26600,3400,23900
"SRP1848-B03 (antibody, V domains shown, VH/VL only; Fc-bearing IgG format with trastuzumab LC, HIS/FLAG-tagged, cell-free expressed; constant regions not tied; also called Antibody 10) VH: EVQLVESGGGLVQPGGSLRLSCAASGFNISMKYIHWVRQAPGKGLEWVGGITPIDGMTDYADSVKGRFTISADTSKNTAYLQMNSLRAEDTAVYYCARGSWSWPSGYSYYLDYWGQGTLVTVSS VL: not shown",26300,2720,17200
"SRP1848-B04 (antibody, V domains shown, VH/VL only; Fc-bearing IgG format with trastuzumab LC, HIS/FLAG-tagged, cell-free expressed; constant regions not tied; also called Antibody 11) VH: EVQLVESGGGLVQPGGSLRLSCAASSFNISNHSIHWVRQAPGKGLEWVGEIYPVDGITDYADSVKGRFTISADTSKNTAYLQMNSLRAEDTAVYYCARGRYSWRAGYSYYLDYWGQGTLVTVSS VL: not shown",27800,2190,27800
"SRP1848-B05 (antibody, V domains shown, VH/VL only; Fc-bearing IgG format with trastuzumab LC, HIS/FLAG-tagged, cell-free expressed; constant regions not tied; also called Antibody 12) VH: EVQLVESGGGLVQPGGSLRLSCAASGFNISNYYIHWVRQAPGKGLEWVGGISPIDGYTDYADSMKGRFTISADTSKNTAYLQMSSLRAEDTAVYYCARGSWFWQSGYGYYLDYWGQGTLVTVSS VL: not shown",24500,,21900
"SRP1848-B06 (antibody, V domains shown, VH/VL only; Fc-bearing IgG format with trastuzumab LC, HIS/FLAG-tagged, cell-free expressed; constant regions not tied; also called Antibody 13) VH: EVQLVESGGGLVQPGGSLRLSCAASGFNISNYYIHWVRQAPGKGLEWVGGITPIDGYTDYADSVKGRFTISADTSKNTAYLQMNSLRAEDTAVYYCARGFWSWPSGYGYYQDYWGQGTLVTVSS VL: not shown",25100,,26800
